Data: US20240092919A1 (Ablynx, published 2024)
One block for each binder: values may come before it.

Legend:
[1] = target: T1, Human T cell receptor on human primary T cells (human, UniProt P01848 1-140; P01850 1-176); experiment: cell-based or functional assay
T1 TCR alpha (looked up): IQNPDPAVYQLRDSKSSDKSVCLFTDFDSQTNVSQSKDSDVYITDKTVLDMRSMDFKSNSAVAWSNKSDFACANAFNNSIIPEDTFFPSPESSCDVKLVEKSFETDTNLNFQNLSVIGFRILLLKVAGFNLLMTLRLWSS
T1 TCR beta (looked up): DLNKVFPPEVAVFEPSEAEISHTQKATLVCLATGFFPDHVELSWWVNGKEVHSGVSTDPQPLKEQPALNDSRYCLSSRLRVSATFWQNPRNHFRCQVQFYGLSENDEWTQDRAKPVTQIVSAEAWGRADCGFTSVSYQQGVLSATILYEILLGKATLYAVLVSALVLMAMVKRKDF

[2] = target: Cynomolgus T cell receptor on cynomolgus primary T cells (cynomolgus monkey); experiment: cell-based or functional assay
[3] = target: T2, Cynomolgus TCR(AEA41865/AEA41866)-zipper protein (cynomolgus monkey); experiment: SPR, ProteOn XPR36, 25 C, immobilised cyTCR-zipper
T2 construct: also called cyTCR-zipper protein; cynoTCR zipper
T2 TCR alpha: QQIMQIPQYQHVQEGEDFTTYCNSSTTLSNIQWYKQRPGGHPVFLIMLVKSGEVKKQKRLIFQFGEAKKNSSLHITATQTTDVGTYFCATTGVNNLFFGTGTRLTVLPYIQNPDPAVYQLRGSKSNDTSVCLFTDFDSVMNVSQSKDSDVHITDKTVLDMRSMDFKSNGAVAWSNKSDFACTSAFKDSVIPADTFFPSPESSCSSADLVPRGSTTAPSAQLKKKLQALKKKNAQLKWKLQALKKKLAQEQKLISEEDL
T2 TCR beta: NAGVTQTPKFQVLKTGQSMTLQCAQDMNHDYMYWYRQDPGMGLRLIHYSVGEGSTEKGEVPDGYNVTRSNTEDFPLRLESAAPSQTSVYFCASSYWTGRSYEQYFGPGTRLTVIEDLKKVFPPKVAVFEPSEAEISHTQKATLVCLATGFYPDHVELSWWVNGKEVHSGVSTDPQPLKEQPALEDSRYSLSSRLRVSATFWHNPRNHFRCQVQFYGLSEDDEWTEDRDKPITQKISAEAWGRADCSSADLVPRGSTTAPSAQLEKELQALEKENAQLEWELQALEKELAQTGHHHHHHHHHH

human CD33 on cells [4] = target: human CD33 on cells (human, UniProt P20138 18-364); experiment: cell-based or functional assay
Target sequence in this assay (P20138 18-364): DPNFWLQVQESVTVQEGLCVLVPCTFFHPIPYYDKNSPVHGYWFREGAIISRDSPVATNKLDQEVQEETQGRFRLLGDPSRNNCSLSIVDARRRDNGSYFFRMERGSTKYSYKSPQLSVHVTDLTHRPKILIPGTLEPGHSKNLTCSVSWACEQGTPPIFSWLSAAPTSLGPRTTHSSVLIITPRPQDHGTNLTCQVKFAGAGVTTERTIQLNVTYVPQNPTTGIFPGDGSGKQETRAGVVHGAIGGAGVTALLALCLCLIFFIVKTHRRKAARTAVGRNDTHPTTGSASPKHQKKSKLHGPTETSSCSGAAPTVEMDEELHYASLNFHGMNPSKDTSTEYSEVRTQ

human CD123 on cells [5] = target: human CD123 on cells (human, UniProt P26951 19-378); experiment: cell-based or functional assay
cynomolgus serum albumin [6] = target: T3, cynomolgus serum albumin (cynomolgus monkey, UniProt A2V9Z4 25-608); experiment: SPR (ProteOn XPR36, 37°C), albumin immobilised
T3 construct: also called CSA
T3 sequence (A2V9Z4 25-608 limits assumed): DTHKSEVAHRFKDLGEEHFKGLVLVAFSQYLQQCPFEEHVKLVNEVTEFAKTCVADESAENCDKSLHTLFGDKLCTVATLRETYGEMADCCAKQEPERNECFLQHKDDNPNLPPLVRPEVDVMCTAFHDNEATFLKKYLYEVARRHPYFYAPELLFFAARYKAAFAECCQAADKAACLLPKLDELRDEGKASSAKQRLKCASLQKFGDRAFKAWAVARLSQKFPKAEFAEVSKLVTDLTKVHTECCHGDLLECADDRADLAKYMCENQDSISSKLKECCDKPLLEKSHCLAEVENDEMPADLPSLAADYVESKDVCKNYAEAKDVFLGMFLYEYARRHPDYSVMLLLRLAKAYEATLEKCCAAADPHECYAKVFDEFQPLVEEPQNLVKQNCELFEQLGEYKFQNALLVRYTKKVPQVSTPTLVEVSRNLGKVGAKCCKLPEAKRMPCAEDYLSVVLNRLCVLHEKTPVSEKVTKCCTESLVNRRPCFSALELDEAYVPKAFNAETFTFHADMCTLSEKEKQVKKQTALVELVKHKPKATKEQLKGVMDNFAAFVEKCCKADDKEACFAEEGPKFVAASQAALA

human CD33 on cells [7] = target: T4, human CD33 on cells (human, UniProt P20138 18-364); experiment: cell-based or functional assay; remark: listed apart in the source
T4 sequence (P20138 18-364): as the sequence (P20138 18-364) above

human CD123 on cells [8] = target: T5, human CD123 on cells (human, UniProt P26951 19-378); experiment: cell-based or functional assay; remark: listed apart in the source
cynomolgus CD33 on cells = cynomolgus CD33 on cells (cynomolgus); experiment: cell-based or functional assay
[9] = target: cynomolgus CD123 on cells (cynomolgus); experiment: cell-based or functional assay
[10] = target: T6, human TCR on primary human T cells (human, UniProt P01848 1-140; P01850 1-176); experiment: cell-based or functional assay
T6 TCR alpha (looked up): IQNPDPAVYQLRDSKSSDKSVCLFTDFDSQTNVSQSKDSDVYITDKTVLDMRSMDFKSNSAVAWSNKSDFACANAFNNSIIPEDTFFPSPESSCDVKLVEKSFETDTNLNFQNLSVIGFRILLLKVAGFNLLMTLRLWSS
T6 TCR beta (looked up): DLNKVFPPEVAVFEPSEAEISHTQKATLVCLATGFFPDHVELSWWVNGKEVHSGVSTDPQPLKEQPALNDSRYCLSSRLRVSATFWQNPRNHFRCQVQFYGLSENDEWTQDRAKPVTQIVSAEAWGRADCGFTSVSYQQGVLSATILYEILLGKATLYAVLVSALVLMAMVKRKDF

[11] = target: cynomolgus TCR on primary cynomolgus T cells (cynomolgus); experiment: cell-based or functional assay
[12] = target: T7, Cynomolgus TCR(AEA41865/AEA41866)-zipper protein (cynomolgus); experiment: SPR, ProteOn XPR36, 37 C; TCR-zipper coated on GLC chip
T7 construct: also called cyTCR-zipper; cyTCR(AEA41865)-zipper
T7 TCR alpha: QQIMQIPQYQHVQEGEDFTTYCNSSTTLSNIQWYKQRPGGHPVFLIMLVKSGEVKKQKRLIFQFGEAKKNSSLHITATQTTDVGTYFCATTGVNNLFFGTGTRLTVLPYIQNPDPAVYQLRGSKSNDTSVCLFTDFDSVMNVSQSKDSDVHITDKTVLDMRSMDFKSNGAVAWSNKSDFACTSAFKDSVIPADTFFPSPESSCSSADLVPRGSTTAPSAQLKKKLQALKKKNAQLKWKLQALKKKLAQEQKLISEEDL
T7 TCR beta: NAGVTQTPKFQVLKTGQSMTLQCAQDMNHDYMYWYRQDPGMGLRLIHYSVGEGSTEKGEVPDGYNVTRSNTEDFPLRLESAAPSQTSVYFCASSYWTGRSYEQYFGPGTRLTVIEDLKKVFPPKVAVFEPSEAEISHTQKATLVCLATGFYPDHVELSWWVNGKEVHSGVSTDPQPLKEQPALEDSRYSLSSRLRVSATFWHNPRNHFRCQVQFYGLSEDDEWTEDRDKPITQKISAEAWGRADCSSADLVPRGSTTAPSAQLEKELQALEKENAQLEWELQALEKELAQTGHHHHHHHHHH

huCD33L-Fc = target: T8, huCD33L-Fc (human, UniProt P20138 18-259); experiment: SPR, ProteOn XPR36, 37 C; CD33L-Fc captured on anti-huIgG (Fc)
T8 construct: also called Human CD33L-Fc; not shown: Fc part, not described (captured by anti-huIgG (Fc))
T8 sequence (P20138 18-259 limits assumed): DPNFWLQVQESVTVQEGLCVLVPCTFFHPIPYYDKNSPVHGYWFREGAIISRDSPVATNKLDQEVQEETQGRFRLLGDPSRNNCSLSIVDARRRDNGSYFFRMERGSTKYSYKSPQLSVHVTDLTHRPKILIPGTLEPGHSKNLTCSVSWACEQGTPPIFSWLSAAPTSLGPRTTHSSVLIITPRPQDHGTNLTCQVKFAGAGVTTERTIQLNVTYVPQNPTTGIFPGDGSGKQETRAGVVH

cyCD33L-Fc = target: T9, cyCD33L-Fc (cynomolgus); experiment: as above
T9 construct: also called Cynomolgus CD33L-Fc

huCD123-Fc = target: T10, huCD123-Fc (human, UniProt P26951 19-305); experiment: SPR, ProteOn XPR36, 37 C; CD123-Fc captured on anti-huIgG (Fc)
T10 construct: also called Human CD123-Fc; not shown: Fc part, not described (captured by anti-huIgG (Fc))
T10 sequence: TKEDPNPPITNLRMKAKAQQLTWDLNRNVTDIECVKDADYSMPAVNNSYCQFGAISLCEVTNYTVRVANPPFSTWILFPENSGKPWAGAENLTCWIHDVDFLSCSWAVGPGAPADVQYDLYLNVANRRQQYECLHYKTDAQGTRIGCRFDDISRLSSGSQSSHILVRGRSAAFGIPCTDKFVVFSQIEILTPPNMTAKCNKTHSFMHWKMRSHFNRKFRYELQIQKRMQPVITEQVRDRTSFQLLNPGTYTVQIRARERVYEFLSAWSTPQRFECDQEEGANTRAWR

cyCD123-Fc = target: T11, cyCD123-Fc (cynomolgus); experiment: as above
T11 construct: also called Cynomolgus CD123-Fc

mouse serum albumin = target: T12, mouse serum albumin (mouse, UniProt P07724 25-608); experiment: SPR, ProteOn XPR36, 37 C; albumin immobilised by amine coupling
T12 construct: also called MSA
T12 sequence (P07724 25-608 limits assumed): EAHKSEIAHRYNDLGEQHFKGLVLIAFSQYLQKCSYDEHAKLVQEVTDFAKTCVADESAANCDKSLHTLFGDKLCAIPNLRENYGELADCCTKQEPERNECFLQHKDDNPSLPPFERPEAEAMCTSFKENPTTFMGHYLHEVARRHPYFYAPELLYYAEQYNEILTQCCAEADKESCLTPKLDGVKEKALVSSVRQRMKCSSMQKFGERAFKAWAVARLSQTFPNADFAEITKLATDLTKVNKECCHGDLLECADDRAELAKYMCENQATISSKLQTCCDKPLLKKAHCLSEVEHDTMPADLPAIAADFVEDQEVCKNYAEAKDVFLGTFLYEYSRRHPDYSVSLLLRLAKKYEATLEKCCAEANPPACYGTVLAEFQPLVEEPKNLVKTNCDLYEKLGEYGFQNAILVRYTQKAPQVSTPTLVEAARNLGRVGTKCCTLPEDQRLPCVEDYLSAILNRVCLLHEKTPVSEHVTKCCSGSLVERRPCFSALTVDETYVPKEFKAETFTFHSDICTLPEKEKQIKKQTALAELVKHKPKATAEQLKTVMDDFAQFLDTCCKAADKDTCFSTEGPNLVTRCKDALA

cynomolgus serum albumin [13] = target: T13, cynomolgus serum albumin (cynomolgus); experiment: as above
T13 construct: also called CSA
T13 sequence (A2V9Z4 25-608): as the sequence (A2V9Z4 25-608 limits assumed) above

human serum albumin = target: T14, human serum albumin (human, UniProt P02768 25-609); experiment: as above
T14 construct: also called HSA

[14] = target: T6, human TCR on primary human T cells; experiment: flow cytometry competition on primary human T cells; competitor FLAG3His6 tagged monovalent TCR ISVD; global (weighted) IC50, n = 4
[15] = target: T15, cynomolgus TCR on primary cynomolgus T cells (cynomolgus); experiment: flow cytometry competition on primary cynomolgus T cells; competitor FLAG3His6 tagged monovalent TCR ISVD; global (weighted) IC50, n = 7
T15 construct: whole, on cells; also called cyno TCRαβ

human CD123 on cells [16] = target: T5, human CD123 on cells; experiment: flow cytometry on CHO Flp-In huCD123 cells; by paragraph 678 with 30 uM HSA, anti-VHH mAb ABH0077 + APC goat anti-mouse; MFI (mean APC) [panel CHO Flp-In huCD123 cells]
human CD33 on cells [17] = target: T4, human CD33 on cells; experiment: flow cytometry on CHO Flp-In huCD33-long cells; by paragraph 678 with 30 uM HSA, anti-VHH mAb ABH0077 + APC goat anti-mouse; MFI (mean APC) [panel CHO Flp-In huCD33-long cells]

B1: T017000637 (bispecific antibody)
chain: DVQLVESGGGLVQAGGSLRLSCAASGITSKINDMGWYRQTPGNYREWVASITATGTTNYRDSVKGRFTISRDNAKSTVYLQMNSLKPEDTTVYYCNTFPPISNFWGQGTLVTVSSGGGGSGGGGSGGGGSGGGGSGGGGSGGGGSGGGGSEVQLVESGGGVVQPGGSLRLSCVASWDVHQINFYGWYRQAPGKEREKVAHISIGDQTDYADSAKGRFTISRDESKNTVYLQMNSLRPEDTALYYCRALSRIWPYDYWGQGTLVTVSSA
notes: also called A0110056A10(E1D)-35GS-T0170056G05(L11V, G26W, K30Q, L34Y, M77T, K83R, V89L, F91Y, M95L, Y99W)-A
- % Lysis, T cell mediated MOLM-13 cell killing, human primary T cells, E:T 10:1 [1]: 0%
- % Lysis, T cell mediated MOLM-13 cell killing, cynomolgus primary T cells, E:T 10:1 [2]: 17%
- binding result [3]: no binding (tested: injected between 4.1 nM and 1000 nM)

- binding result (cynomolgus serum albumin [6]): binds
B2: TCRαβ-CD33-CD123 multispecific ISVD construct (other)
chain: DVQLVESGGGVVQPGGSLRLSCVASGYVHKINFYGWYRQAPGKEREKVAHISIGDQTDYADSAKGRFTISRDESKNTVYLQMNSLRPEDTAAYYCRALSRIWPYDYWGQGTLVTVSSGGGGSGGGSEVQLVESGGGVVQPGGSLRLSCAASGGVFRLNSMGWFRQAPGKQRELVAIITSDGDTNYADSVKGRFTISRDQAKNTVYLQMNSLRPEDTALYYCQITYSTSSYSFPINTWGQGTLVTVSSGGGGSGGGSEVQLVESGGGVVQPGGSLRLSCAASGVIFSGNVMGWYRRQAPGKEREWVAAIAEGGSILYRDSVKGRFTISRDNAKNTVYLQMNSLRPEDTALYYCNSHPPVLPYWGQGTLVTVSSGGGGSGGGGSGGGGSGGGGSEVQLVESGGGVVQPGGSLRLSCAASGFTFRSFGMSWVRQAPGKGPEWVSSISGSGSDTLYADSVKGRFTISRDNSKNTLYLQMNSLRPEDTALYYCTIGGSLSRSSQGTLVTVSSA
notes: also called A025001562; CD123-CD33-TCR multispecific ISVD construct
- Global IC50, impedance-based (xCELLigence) human T cell mediated killing of CHO hu CD33 cells (human CD33 on cells [4]): 0.054 nM
- Global IC50, impedance-based (xCELLigence) human T cell mediated killing of CHO hu CD123 cells (human CD123 on cells [5]): 0.025 nM

- Kd [12]: 6.7 nM
- Kd (huCD33L-Fc): 7.6 nM
- Kd (cyCD33L-Fc): 6.9 nM
- Kd (huCD123-Fc): 0.59 nM
- Kd (cyCD123-Fc): 2 nM
- Kd (mouse serum albumin): < 500 nM
- Kd (cynomolgus serum albumin [13]): 7.9 nM
- Kd (human serum albumin): 9.7 nM
- IC50 [14]: 218 nM
- IC50 [15]: 729 nM
- EC50 (read off the curve) (human CD123 on cells [16]): ~10 nM
- EC50 (read off the curve) (human CD33 on cells [17]): ~70 nM
B3: TCRαβ-CD33-CD123 multispecific ISVD construct (SEQ ID NO: 460) (other)
chain: DVQLVESGGGVVQPGGSLRLSCVASGYVHKINFYGWYRQAPGKEREKVAHISIGDQTDYADSAKGRFTISRDESKNTVYLQMNSLRPEDTAAYYCRALSRIWPYDYWGQGTLVTVSSGGGGSGGGSEVQLVESGGGVVQPGGSLRLSCAASGGVFRLNSMGWFRQAPGKQRELVAIITSDGDTNYADSVKGRFTISRDQAKNTVYLQMNSLRPEDTALYYCQITYSTSSYSFPINTWGQGTLVTVSSGGGGSGGGSEVQLVESGGGVVQPGGSLRLSCAASGVIFSGNVMGWYRRQAPGKEREWVAAIAEGGSILYRDSVKGRFTISRDNAKNTVYLQMNSLRPEDTALYYCNSHPPVLPYWGQGTLVTVSSGGGGSGGGGSGGGGSGGGGSEVQLVESGGGVVQPGGSLRLSCAASGFTFRSFGMSWVRQAPGKGPEWVSSISGSGSDTLYADSVKGRFTISRDNSKNTLYLQMNSLRPEDTALYYCTIGGSLSRSSQGTLVTVSSA
notes: also called A025001562; TCR-CD33-CD123
- Global IC50 (M), impedance based human T cell mediated CHO hu CD33 cell killing, E:T 15:1, 50 uM HSA (n = 4) (human CD33 on cells [7]): 1.1e-10 M
- Global IC50 (M), impedance based human T cell mediated CHO hu CD123 cell killing, E:T 15:1, 50 uM HSA (n = 7) (human CD123 on cells [8]): 4.4e-11 M
- IC50 (M), impedance based cynomolgus T cell mediated CHO Flp-In cynoCD33 cell killing, E:T 15:1, 50 uM HSA (cynomolgus CD33 on cells): 6.2e-12 M
- IC50 (M), impedance based cynomolgus T cell mediated CHO Flp-In cynoCD123 cell killing, E:T 15:1, 50 uM HSA [9]: 1.4e-12 M
- Global EC50 (M), flow cytometry human T cell mediated MOLM-13 cell killing, E:T 10:1, 50 uM HSA (n = 13) [10]: 1.8e-11 M
- EC50 (M), cynomolgus T cell mediated MOLM-13 cell killing, E:T 10:1 [11]: 1.36e-11 M
